# B1: Cytochrome c-551, P00099 (parent)
# chain: MKPYALLSLLATGTLLAQGAWAEDPEVLFKNKGCVACHAIDTKMVGPAYKDVAAKFAGQAGAEAELAQRIKNGSQGVWGPIPMPPNAVSDDEAQTLAKWVLSQK
# Variants of: B1
# Conditions: Pseudomonas aeruginosa (strain ATCC 15692 / DSM 22644 / CIP 104116 / JCM 14847 / LMG 12228 / 1C / PRS 101 / PAO1); pH 5; 25 °C; GdnHCl; DSC; Unknown; reversible: yes; structure 451C; whole UniProt chain shown
row,Variant,denaturant midpoint (higher = more stable) [M]
1,MKPYALLSLLATGTLLAQGAWAEDPEVLAKNKGCMACHAIDTKMVGPAYKDVAAKYAGQAGAEAYLAQRIKNGSQGVWGPIPMPPNAVSDDEAQTLAKWILSQK,4.39

# Same assay, conditions: Pseudomonas aeruginosa (strain ATCC 15692 / DSM 22644 / CIP 104116 / JCM 14847 / LMG 12228 / 1C / PRS 101 / PAO1); pH 5; 47.3 °C; Thermal; DSC; Unknown; reversible: yes; structure 451C; whole UniProt chain shown
Variant,Tm [°C],"change of melting temperature, mutant - wild type (higher = more stable) [°C]",heat capacity change of unfolding [kcal/mol/K]
MKPYALLSLLATGTLLAQGAWAEDPEVLAKNKGCMACHAIDTKMVGPAYKDVAAKYAGQAGAEAYLAQRIKNGSQGVWGPIPMPPNAVSDDEAQTLAKWILSQK,80.2,32.9,1.07

# Same assay, conditions: Pseudomonas aeruginosa (strain ATCC 15692 / DSM 22644 / CIP 104116 / JCM 14847 / LMG 12228 / 1C / PRS 101 / PAO1); pH 5; Thermal; DSC; Unknown; reversible: yes; structure 451C; whole UniProt chain shown
Variant,Tm [°C],"change of melting temperature, mutant - wild type (higher = more stable) [°C]",heat capacity change of unfolding [kcal/mol/K],unfolding enthalpy (calorimetric) [kcal/mol]
MKPYALLSLLATGTLLAQGAWAEDPEVLAKNKGCMACHAIDTKMVGPAYKDVAAKYAGQAGAEAYLAQRIKNGSQGVWGPIPMPPNAVSDDEAQTLAKWILSQK,80.2,32.9,1.07,46

# Reference: FireProtDB (doi:10.1074/jbc.m005861200)
